Data on 20 molecules can be found in patent publication US20220017627A1 (Bristol-Myers Squibb, published 2022).

Changes are numbered by the printed parent chain. In names and notes the source's numbering stands.

Assay [1] has as its target T1, hIL-7R (Example 11) (human, UniProt P16871 21-239).
T1 construct: Called full length hIL-7R for the mRNA display and hIL-7R for the Biacore runs; also called full length hIL-7R; human IL-7R
T1 chain: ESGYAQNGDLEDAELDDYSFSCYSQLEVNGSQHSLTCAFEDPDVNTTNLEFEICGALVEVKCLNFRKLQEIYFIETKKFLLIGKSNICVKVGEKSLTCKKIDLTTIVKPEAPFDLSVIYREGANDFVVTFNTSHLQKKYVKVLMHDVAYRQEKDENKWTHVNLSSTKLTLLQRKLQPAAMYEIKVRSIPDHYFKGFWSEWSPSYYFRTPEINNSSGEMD
Kind of assay: SPR (Biacore), ratio KD of parent 18B1 to KD of variant [cont'd]. An excerpt:
(§1) Affinity (KD) of each variant binding to hIL-7R was obtained using this approach, and compared against the enrichment ratio (ER) obtained through NGS heat map analysis for the same variant.
A general note: Surface plasmon resonance follows binding to a sensor surface in real time, without labels.

Assay [2] deals with T1, hIL-7R (Example 11). Kind of assay: NGS enrichment ratio of the mutation in the scFv library selected at 0.2 nM hIL-7R [cont'd]. An excerpt: (§2) All six CDRs of the antibody were mutated, with each position in the CDR mutated to all possible amino acids at that position. […] FIGS. 17A and 17B provide a schematic of the overall process.
For assay [3], the target named is T1, hIL-7R (Example 11). Kind of assay: SPR (Biacore), ratio KD of parent 18B1 to KD of variant.
Description: as §1

In assay [4] the target is T1, hIL-7R (Example 11). The assay is described as follows: NGS enrichment ratio of the mutation in the scFv library selected at 0.2 nM hIL-7R.
Description: as §2

Assay [5] has as its target T1, hIL-7R (Example 11). The assay is described as follows: SPR (Biacore), ratio KD of parent 18B1 to KD of variant; row repeated at the end of the table [cont'd].
Description: as §1

B1: 18B1 LC D50A (antibody, human IgG1, kappa, V domains shown)
VH: EVQLVESGGGLVQPGRSLRLSCAASGFTFDDHAMHWVRQAPGKGLEWVSGISWNSRGIGYADSVKGRFTIFRDNAKNSLYLQMNSLRAEDTALYYCAKDEYSRGYYVLDVWGQGTTVTVSS
VL: AIQLTQSPSSLSASVGDRVTITCRASQGISSALAWYQQKPGKAPKLLIYAASSLESGVPSRFSGSGSGTDFTLTISSLQPEDFATYYCQQFNSYPLWITFGQGTRLEIKR
Regarding B1, the “KD Relative to 18B1” value in assay [1] worked out at 0.77. The “0.2 nM NGS” value in assay [2] was found to be 0.3.

B2: 18B1 LC S31A (antibody, human IgG1, kappa, V domains shown)
VH: B1 VH
VL: B1 VL with S31A, A50D
Regarding B2, the “KD Relative to 18B1” value in assay [3] turned out to be 0.74. The “0.2 nM NGS” value in assay [4] was 0.6.

B3: 18B1 LC Q27A (antibody, human IgG1, kappa, V domains shown)
VH: B1 VH
VL: B1 VL with Q27A, A50D
B3: the “KD Relative to 18B1” value in assay [3] is 1.06. For the same molecule, the “0.2 nM NGS” value in assay [4] is 1.27.

B4: 18B1 LC N92A (antibody, human IgG1, kappa, V domains shown)
VH: B1 VH
VL: B1 VL with A50D, N92A
As to B4, the “KD Relative to 18B1” value in assay [3] was 0.63. In addition, the “0.2 nM NGS” value in assay [4] is 0.34.

B5: 18B1 LC P95A (antibody, human IgG1, kappa, V domains shown)
VH: B1 VH
VL: B1 VL with A50D, P95A
As for B5, in assay [3], the “KD Relative to 18B1” value was determined as 0.08. The “0.2 nM NGS” value in assay [4] was 0.03.

B6: 18B1 LC S26A (antibody, human IgG1, kappa, V domains shown)
VH: B1 VH
VL: B1 VL with S26A, A50D
Take B6: the “KD Relative to 18B1” value in assay [3] came to 1.28. In addition, the “0.2 nM NGS” value in assay [4] turned out to be 1.32.

B7: 18B1 LC I29A (antibody, human IgG1, kappa, V domains shown)
VH: B1 VH
VL: B1 VL with I29A, A50D
B7: in assay [3], the “KD Relative to 18B1” value stood at 1.46. In addition, in assay [4], the “0.2 nM NGS” value is 1.44.

B8: 18B1 LC G28A (antibody, human IgG1, kappa, V domains shown)
VH: B1 VH
VL: B1 VL with G28A, A50D
Take B8: the “KD Relative to 18B1” value in assay [3] is 0.85. For the same molecule, the “0.2 nM NGS” value in assay [4] was found to be 1.05.

B9: 18B1 LC L54A (antibody, human IgG1, kappa, V domains shown)
VH: B1 VH
VL: B1 VL with A50D, L54A
Consider B9, for which the “KD Relative to 18B1” value in assay [1] turned out to be 0.93. In addition, in assay [2], the “0.2 nM NGS” value stood at 0.99.

B10: 18B1 LC S52A (antibody, human IgG1, kappa, V domains shown)
VH: B1 VH
VL: B1 VL with A50D, S52A
B10: in assay [1], the “KD Relative to 18B1” value was 0.93. Moreover, the “0.2 nM NGS” value in assay [2] worked out at 1.09.

B11: 18B1 LC Q90A (antibody, human IgG1, kappa, V domains shown)
VH: B1 VH
VL: B1 VL with A50D, Q90A
In the case of B11, in assay [3], the “KD Relative to 18B1” value amounted to 1.46. In assay [4], the “0.2 nM NGS” value is 1.63.

B12: 18B1 LC R24A (antibody, human IgG1, kappa, V domains shown)
VH: B1 VH
VL: B1 VL with R24A, A50D
As for B12, the “KD Relative to 18B1” value in assay [3] and in assay [5] was 1.15 in each case. Further, the “0.2 nM NGS” value in assay [4] was 0.91.

B13: 18B1 LC S56A (antibody, human IgG1, kappa, V domains shown)
VH: B1 VH
VL: B1 VL with A50D, S56A
Take B13: the “KD Relative to 18B1” value in assay [1] stood at 0.98. In assay [2], the “0.2 nM NGS” value was determined as 0.96.

B14: 18B1 LC S30A (antibody, human IgG1, kappa, V domains shown)
VH: B1 VH
VL: B1 VL with S30A, A50D
On to B14, for which the “KD Relative to 18B1” value in assay [3] came to 0.88. Moreover, the “0.2 nM NGS” value in assay [4] was determined as 0.7.

B15: 18B1 LC S93A (antibody, human IgG1, kappa, V domains shown)
VH: B1 VH
VL: B1 VL with A50D, S93A
Regarding B15, the “KD Relative to 18B1” value in assay [3] was 1.86. Besides, the “0.2 nM NGS” value in assay [4] was 1.84.

B16: 18B1 LC L33A (antibody, human IgG1, kappa, V domains shown)
VH: B1 VH
VL: B1 VL with L33A, A50D
As for B16, the “KD Relative to 18B1” value in assay [3] was 1.08. For the same molecule, in assay [4], the “0.2 nM NGS” value was 1.05.

B17: 18B1 LC T97A (antibody, V domains shown)
VH: B1 VH
VL: B1 VL with A50D, T99A
notes: copies: 2 + 2
For the molecule B17, the “KD Relative to 18B1” value in assay [3] was 1.16. Also, in assay [4], the “0.2 nM NGS” value was determined as 0.92.

B18: 18B1 LC F91A (antibody, human IgG1, kappa, V domains shown)
VH: B1 VH
VL: B1 VL with A50D, F91A
For the molecule B18, the “KD Relative to 18B1” value in assay [3] is 0.19. In assay [4], the “0.2 nM NGS” value turned out to be 0.05.

B19: 18B1 LC S53A (antibody, human IgG1, kappa, V domains shown)
VH: B1 VH
VL: B1 VL with A50D, S53A
Turning to B19, in assay [1], the “KD Relative to 18B1” value was found to be 0.79. Further, the “0.2 nM NGS” value in assay [2] amounted to 1.07.

B20: 18B1 LC E55A (antibody, human IgG1, kappa, V domains shown)
VH: B1 VH
VL: B1 VL with A50D, E55A
As for B20, the “KD Relative to 18B1” value in assay [1] amounted to 0.57. In assay [2], the “0.2 nM NGS” value was determined as 0.23.
